The labels stand for the following.
B1: Atg12~Atg5-Atg16-mCherry complex [modified: conjugated to Atg5 (Atg12~Atg5 protein conjugate) | conjugated to Atg12; conjugated to Atg5 (Atg12~Atg5 protein conjugate); conjugated to Atg12] [S. cerevisiae] / GST-prApe1(1–45) + … (parent)
chain 1: MSRILESENETESDESSIISTNNGTAMERSRNNQELRSSPHTVQNRLELFSRRLSQLGLASDISVDQQVEDSSSGTYEQEETIKTNAQTSKQKSHKDEKNIQKIQIKFQPIGSIGQLKPSVCKISMSQSFAMVILFLKRRLKMDHVYCYINNSFAPSPQQNIGELWMQFKTNDELIVSYCASVAFG
chain 2: MNDIKQLLWNGELNVLVSIDPSFLMKGSPREIAVLRIRVPRETYLVNYMPLIWNKIKSFLSFDPLTDSEKYFWFEHNKTPIPWNYPVGVLFDCLAGKSATFTTSFENQVKDVLTFLRIHLVMGDSLPPTIIPIASSKTQAEKFWFHQWKQVCFILNGSSKAIMSLSVNEARKFWGSVITRNFQDFIEISNKISSSRPRHIPLIIQTSRTSGTFRISQPTISMTGVNPTLKDIEGDILDVKEGINGNDVMVICQGIEIPWHMLLYDLYSKLRSFDGFLYITLVPIKGGDKASSEL
chain 3: MGNFIITERKKAKEERSNPQTDSMDDLLIRRLTDRNDKEAHLNELFQDNSGAIGGNIVSHDDALLNTLAILQKELKSKEQEIRRLKEVIALKNKNTERLNDELISGTIENNVLQQKLSDLKKEHSQLVARWLKKTEKETEAMNSEIDGTK
chain 4: MEEQREILEQLKKTLQMLTVEPSKNNQIANEEKEKKENENSWCIL
chain 5: MNNSKTNQQMNTSMGYPLTVYDECNKFQLIVPTLDANIMLWCIGQLSLLNDSNGCKHLFWQPNDKSNVRILLNNYDYGHLFKYLQCQRKCSVYIGEGTLKKYNLTISTSFDNFLDLTPSEEKESLCREDAHEDPVSPKAGSEEEISPNSTSNVVVSRECLDNFMKQLLKLEESLNKLELEQKVTNKEPNHRISGTIDIPEDRSELVNFFTELKTVKQLEDVFQRYHDYERLSQECDSKTEIASDHSKKETKIEVEPPNERSLQITMNQRDNSLYFQLFNNTNSVLAGNCKLKFTDAGDKPTTQIIDMGPHEIGIKEYKEYRYFPYALDLEAGSTIEIENQYGEVIFLGKYGSSPMINLRPPSRLSAESLQASQEPFYSFQIDTLPELDDSSIISTSISLSYDGDDNEKALTWEEL

This note sets out measurements from PMC5148612.

In this assay the parent is B1. Put plainly: microscopy-based bead recruitment assay (mCherry signal at cargo mimetic beads). Particulars: with GST-prApe1(1–45) + Atg19 [S. cerevisiae]; 25 mM HEPES pH 7.5, 150 NaCl and 1 mM DTT; parent: 100; read off a plot.
chain 2 MNDIKQLLWNGELNVLVSIDPSFLMKGSPREIAVLRIRVPRETYLVNYMPLIWNKIESFLSFDPLTDSEKYFWFEHNKTPIPWNYPVGVLFDCLAGKSATFTTSFENQVKDVLTFLRIHLVMGDSLPPTIIPIASSKTQAEKFWFHQWKQVCFILNGSSKAIMSLSVNEARKFWGSVITRNFQDFIEISNKISSSRPRHIPLIIQTSRTSGTFRISQPTISMTGVNPTLKDIEGDILDVKEGINGNDVMVICQGIEIPWHMLLYDLYSKLRSFDGFLYITLVPIKGGDKASSEL [chain 2 K57E]: the percent of parent came out at 68%.

Turning to chain 2 MNDIKQLLWNGELNVLVSIDPSFLMKGSPREIAVLRIRVPRETYLVNYMPLIWNKIKSFLSFDPLTDSEKYFWFEHNKTPIPWEYPVGVLFDCLAGKSATFTTSFENQVKDVLTFLRIHLVMGDSLPPTIIPIASSKTQAEKFWFHQWKQVCFILNGSSKAIMSLSVNEARKFWGSVITRNFQDFIEISNKISSSRPRHIPLIIQTSRTSGTFRISQPTISMTGVNPTLKDIEGDILDVKEGINGNDVMVICQGIEIPWHMLLYDLYSKLRSFDGFLYITLVPIKGGDKASSEL [chain 2 N84E], the percent of parent stood at 70%.

For chain 2 MNDIKQLLWNGELNVLVSIDPSFLMKGSPREIAVLRIRVPRETYLVNYMPLIWNKIESFLSFDPLTDSEKYFWFEHNKTPIPWEYPVGVLFDCLAGKSATFTTSFENQVKDVLTFLRIHLVMGDSLPPTIIPIASSKTQAEKFWFHQWKQVCFILNGSSKAIMSLSVNEARKFWGSVITRNFQDFIEISNKISSSRPRHIPLIIQTSRTSGTFRISQPTISMTGVNPTLKDIEGDILDVKEGINGNDVMVICQGIEIPWHMLLYDLYSKLRSFDGFLYITLVPIKGGDKASSEL [chain 2 K57E N84E], the percent of parent was 55%.
